Results: US10876098B2, “Polynucleotide, host cell and a method to recombinantly produce the protein encoded by said polynucleotide having peroxygenative activity” (CONSEJO SUPERIOR DE INVESTIGACIONES CIENTIFICAS (CSIC), priority 2015, dated 2020)

Assays:
Optimum pH for ABTS = assay type: biochemical
[1] = Conversion of 1-naphthol into 1,4-naphthoquinone, HPLC; assay type: biochemical; details: versus PaDa-I
Method: Each reaction was performed in triplicate and were stopped with HCl (pH<1) at different times (between 60 and 600 s). Inset: polymeric colorimetric products derived from 1.4-naphthoquinone, 1: PaDa-I and 2: JaWa.
This effect can also be observed at first glance, since the polymeric products produced in the reaction with the PaDa-I variants (SEQ ID NO: 18) (due to non-enzymatic quinone regrouping processes) are coloured (FIG. 4). There are hypotheses in literature on the possibility that UPO is similar to CPO in the existence of different sites with peroxidase activity in its structure. To suppress these alternative peroxidation pathways, the structure of the AaeUPO1 crystal was closely examined and a variant was built by mean of directed mutagenesis in Trp24 (FIG. 5A), a highly oxidable residue, found on the protein surface, using the PaDa-I (SEQ ID NO: 18) and JaWa (SEQ ID NO: 24) variants as templates, as described in the section on materials and methods.

[2] = Dual colorimetric HTS, DMP (peroxidase activity on microplate); assay type: biochemical; details: parental PaDa-I; S. cerevisiae microcultures
Method: (§1) The mother plates were centrifuged (Eppendorf 5810R centrifuge, Germany) for 10 minutes at 3,500 RPM and 4° C. 20 μL of supernatant were transferred from these mother plates to two replica daughter plates with the help of a Freedom EVO liquid handling robot (Tecan, Switzerland).
(§2) The plates were briefly agitated and initial absorbance was measured at 469 nm and 510 nm, respectively, using a plate reader for such purpose ([…]ax Plus 384, Molecular Devices, USA). […] The plates were kept at room temperature until they turned orange (DMP) or red (naphthol-Fast Red), at which time the absorbance was newly measured. The values were normalised against the parental of each plate. In order to rule out false positives, two re-screenings were carried out, in addition to a third re-screening wherein kinetic stability was determined (T50) (P. Molina-Espeja, et al. Appl. Environ. Microbiol. 2014. 80, 3496-3507).

Optimum pH for DMP = assay type: biochemical
[3] = Optimum pH for naphthalene; assay type: biochemical
[4] = Dual colorimetric HTS, naphthalene-Fast Red (peroxygenase activity on microplate); assay type: biochemical; details: parental PaDa-I; S. cerevisiae microcultures
Method: as §1, §2

[5] = 4-AAP assay with propranolol in the presence of ascorbic acid (peroxygenase activity); assay type: biochemical; details: 0.2 μM pure variant, 5 mM propranolol, 2 mM H2O2, with and without 4 mM ascorbic acid
Method: FIG. 9 Assay of 4-AAP (4-aminoantipyrine) with different pure UPO variants (AaeUPO1, PaDa-1 and JaWa). […] Each reaction was performed in triplicate.
The mother plates were centrifuged (Eppendorf 5810R centrifuge, Germany) for 10 minutes at 3,500 RPM and 4° C. 20 μL of supernatant of these mother plates were transferred to two replica daughter plates with the help of a Freedom EVO liquid-handling robot (Tecan, Switzerland).
Without ascorbic, the plates were incubated for 30 minutes and with ascorbic for 60 minutes. […] The plates were briefly agitated and absorbance measured at 530 nm, using a plate reader for such purpose ([…]ax Plus 384, Molecular Devices, USA). The values were normalised against the parental of each plate. To rule out false positives, re-screenings were carried out, in addition to a third re-screening wherein kinetic stability was determined (T50) (P. Molina-Espeja, et al. Appl. Environ. Microbiol. 2014. 80, 3496-3507).

[6] = Isoelectric point by two-dimensional electrophoresis; assay type: physicochemical
Method: The analyses were performed using an Autoflex III MALDI-TOF-TOF unit with smartbeam laser (Bruker Daltonics). The samples were evaluated in positive mode. The method was calibrated using BSA with standard, thereby covering a range of 15,000 to 70,000 Da. In order to determine the isoelectric point of the UPO variants, 8 μg of pure enzyme were subjected to two-dimensional electrophoresis. These experiments were carried out at the Proteomic and Genomic Service of the Biological Research Centre (CIB-CSIC, Spain).

[7] = Naphthalene transformation reaction analysed by HPLC-PDA; assay type: biochemical
Method: A) Products formed after 15 minutes of reaction stopped with 20 μL of HCl 37% (PaDa-I, black bars; JaWa, grey bars). […] C) and D) Monitoring of the reaction for 270 minutes (without adding HCl) for the PaDa-I (C) and JaWa (D) mutants.
The reactions were analysed by means of chromatography in reverse phase (HPLC). The equipment is composed by a tertiary pump (Varian-Agilent Technologies, USA) coupled to an autosampler (Merck Millipore, MA, USA); an ACE C18 PFP column was used for separation (pentafluorophenyl, 15 cm×4.6 cm) at 45° C. and detection was performed using a photodiode detector (PDA) (Varian-Agilent Technologies, USA). The mobile phase selected was 70% methanol and 30% ddH2O (in both cases with 0.1% of acetic acid) at a flow rate of 0.8 mL/min. The reaction was quantified at 268 nm (based on standard HPLCs). […] For long reaction times, the conditions used were those described earlier but without stopping the reaction with HCl. A sample of 10 μL was injected and analysed at different reaction times (from 1 to 270 minutes).

[8] = 15 minutes of reaction stopped with HCl
[9] = 15 minutes of reaction stopped with HCl, 6.6 nM enzyme, 1 mM naphthalene, 1 mM H2O2

- activity against propranolol in 4-AAP assay among pure UPO variants [5]: greatest activity against propranolol
B1: JaWa: PaDa-I variant with added mutations G241D and R257K, SEQ ID NO: 24 (protein)
chain: MKYFPLFPTLVYAVGVVAFPDYASLAGLSQQELDAIIPTLEAREPGLPPGPLENSSAKLVNDEAHPWKPLRPGDIRGPCPGLNTLASHGYLPRNGVATPAQIINAVQEGFNFDNQAAIFATYAAHLVDGNLITDLLSIGRKTRLTGPDPPPPASVGGLNEHGTFEGDASMTRGDAFFGNNHDFNETLFEQLVDYSNRFGGGKYNLTVAGELRFKRIQDSIATNPNFSFVDFRFFTAYGETTFPANLFVDGRRDDGQLDMDAARSFFQFSRMPDDFFRAPSPRSDTGVEVVVQAHPMQPGKNVGKINSYTVDPTSSDFSTPCLMYEKFVNITVKSLYPNPTVQLRKALNTNLDFLFQGVAAGCTQVFPYGRD
- Optimum pH for ABTS (Optimum pH for ABTS): 4.0
- reduction in the ratio 1,4-naphthoquinone:1-naphthol [1]: ~1.5 fold
- peroxidase activity on microplate relative to parental [2]: reduced to half
- Optimum pH for DMP (Optimum pH for DMP): 6.0
- Optimum pH for naphthalene [3]: 6.0
- peroxygenase activity on microplate relative to parental [4]: doubled that of its parental
- pI [6]: 5.3
- 1,4-naphthoquinone (oxidation product) detected [7, 8]: without detectable traces of 1,4-naphthoquinone
- increase in the production of 1-naphthol, more than PaDa-I [7, 8]: 156%
- regioselectivity, 1-naphthol [7, 9]: 92%
- regioselectivity, 2-naphthol [7, 9]: 8%
- time at which formation of the epoxide intermediary reached its maximum ([7]; 270 minute reaction at pH 7.0): ~40 min
- production of 1-naphthol ([7]; 270 minutes at pH 7.0 without stopping the reaction): 0.32 mM
- total turnover numbers (TTN), 1-naphthol ([7]; calculated using the production value of 1-naphthol after 270 minutes): ~50,000 μmoles of product/μmoles of en
- regioselectivity against 1-naphthol ([7]; long reaction times, 270 minutes at pH 7.0 without stopping the reaction): 97%
